Assay results taken from patent US9897611B2, “Molecule library constructed on the basis of backbone structure of microprotein” (NATIONAL INSTITUTE OF ADVANCED INDUSTRIAL SCIENCE AND …, priority 2012, dated 2018).
Read-outs that look alike come from different tables or passages of the source. Each block holds one substance with its values, some of them ahead of it. Ends that are not written are not given here.

Experiments:
human IgG Fc region = molecular target: T1, human IgG Fc region (Homo sapiens, UniProt P01857); assay: SPR binding affinity analysis on immobilized Fc region prepared by papain digestion of human monoclonal IgG
T1 construct: The Fc region was prepared by the papain digestion of a human monoclonal antibody IgG
Description: The Fc region was prepared by the papain digestion of a human monoclonal antibody IgG (Chugai Pharmaceutical Co., Ltd.) according to the instruction manual attached to Pierce® Fab Preparation Kit (Thermo Fisher Scientific Inc. Pierce) followed by purification by affinity chromatography using MabSelect SuRe (GE Healthcare Japan Corp.), HiTrap DEAE anion-exchange chromatography (GE Healthcare Japan Corp.), and gel filtration chromatography using Superdex 200 (GE Healthcare Japan Corp.).
The Fc region prepared in the section 1) of Example 2 was immobilized onto a sensor chip CM5 (GE Healthcare Japan Corp.) by the amine coupling method.
Subsequently, an example of binding affinity analysis by the surface plasmon resonance method is shown as to the functions of the thioredoxin fusion proteins with the prepared polypeptides. The analysis apparatus used was Biacore T100 (GE Healthcare Japan Corp.). […] The data was processed with Biacore T100 Evaluation Software (GE Healthcare Japan Corp.).
The assay employed Biacore T100 (GE Healthcare Japan Corp.).
Subsequently, the prepared 5 types of polypeptides were analyzed for their binding affinity by surface plasmon resonance. The assay employed Biacore T100 (GE Healthcare Japan Corp.).

[1] = tested on: human Fc region manufactured by Jackson ImmunoResearch Laboratories, Inc.; assay: SPR binding affinity analysis, peptide as analyte on immobilized human Fc region (Jackson ImmunoResearch)
Excerpt: A human Fc region manufactured by Jackson ImmunoResearch Laboratories, Inc. was immobilized onto a sensor chip CM5 (GE Healthcare Japan Corp.) by the amine coupling method using Amine Coupling Kit (GE Healthcare Japan Corp.).

[2] = analyte on Fc region immobilized on CM5, HBS-T, 25° C., read-out: equilibrium dissociation constant KD
[3] = alanine variants of p17_2, Fc region immobilized on CM5, read-out: KD (nM), binding dissociation constant of p17_2 variant

- Kd (human IgG Fc region; Fc region immobilized on CM5, 0.78-100 μM peptide, read-out: equilibrium dissociation constant KD by Scatchard plot using equilibrium value): 42000 nM
Substance: DAAWHLGELVWAT [FcIII-Ala peptide, reference compound]

- improvement in affinity compared with FcIII-Ala peptide (human IgG Fc region): approximately 420 fold
Substance: DAAWHLGELVWATYYDPETGTWLPDWQTMAQK [pep21 peptide]

Substance: DAAWHLGELVWATYYDPETGTWQPDWLYMTTR [pep14 peptide]
- Kd (human IgG Fc region; [2]): 120 nM

- binding affinity relative to that of the 2A1 peptide ([1]; chignolin variant region replaced with glycine-rich linker): 1/1000
- Kd ([1]; peptide analyte, Fc immobilized on sensor chip CM5, HBS-T pH 7.4, 25° C., read-out: equilibrium dissociation constant KD): 23000 nM
Substance: GVVRQWSGGGGSGGGGRSSIAYGGG [2A1Gly peptide, 2A1 peptide with the chignolin variant region replaced by a glycine-rich linker]

- improvement in affinity compared with FcIII-Ala peptide (human IgG Fc region): approximately 26000 fold
- improvement in binding affinity compared with pep24 peptide (human IgG Fc region): 138 fold
- Kd (human IgG Fc region; [2]): 1.6 nM
Substance: p17_2: SEQ ID NO: 47; 54 residues, p17 with Gly, Pro, Gly at the N terminus, from protease cleavage of thioredoxin fusion (GPGISAFSPGRGVYDPETGTWYDAAWHLGELVWATYYDPETGTWEPDWQRMLGQ; Selected sequence, p17_2)

- Kd (human IgG Fc region; [3]): 45 nM
Substance: p17_D47A: alanine variant of p17_2 polypeptide, SEQ ID NO: 61 (GPGISAFSPGRGVYDPETGTWYDAAWHLGELVWATYYDPETGTWEPAWQRMLGQ; Selected sequence, p17_D47A)

- Kd (human IgG Fc region; [3]): 5.6 nM
Substance: p17_P46A: alanine variant of p17_2 polypeptide, SEQ ID NO: 60 (GPGISAFSPGRGVYDPETGTWYDAAWHLGELVWATYYDPETGTWEADWQRMLGQ; Selected sequence, p17_P46A)

- Kd (human IgG Fc region; [3]): 7.8 nM
Substance: p17_R50A: alanine variant of p17_2 polypeptide, SEQ ID NO: 63 (GPGISAFSPGRGVYDPETGTWYDAAWHLGELVWATYYDPETGTWEPDWQAMLGQ; Selected sequence, p17_R50A)

- Kd (human IgG Fc region; [3]): 200 nM
Substance: p17_W48A: alanine variant of p17_2 polypeptide, SEQ ID NO: 62 (GPGISAFSPGRGVYDPETGTWYDAAWHLGELVWATYYDPETGTWEPDAQRMLGQ; Selected sequence, p17_W48A)
